Assays:
[1] = biological target: HLA-A*02 tetramers with the 9 similar peptides (SimPeps, SEQ ID NOs: 59-67); experiment: yeast display, 9 similar peptides, 10 nM HLA-A*02 tetramer
[2] = biological target: HLA-A*02 tetramers with the 9 similar peptides (SimPeps, SEQ ID NOs: 59-67); experiment: yeast display, flow cytometry, SimPep tetramer mix, 25 nM each

similar peptide binding, % positive cells [1] [%]	yeast cells stained positive [2] [%]	Binder
0		scTCR CL-21753 (TCR) EDVEQSSFLSVREGDSAVINCTYTDASSTYFYWYKQEPGAGLQLLTYIFSNMDMKQDQRLTVLLNKKDKHLSLRIADTQTGDSAIYFCAVKDNARLMFGDGTQLVVKPGGGGSGGGGSGGGGSGGGGSGGGGSAVISQKPSRDIVQRGNSVTIQCQVDRPVTMMFWYRQQPGQSLTLIATAYDEGSATYESGFVIDKFPISRPNLTFSTLTVSNMSPEDSSIYLCSVLGAYGYTFGSGTRLTVV
	0	scTCR R76P1E1S with matured CDRb1 RPVTM (TCR) EDVEQSSFLSVREGDSAVINCTYTDSSSTYFYWYKQEPGAGLQLLTYIFSNMDMKQDQRLTVLLNKKDKHLSLRIADTQTGDSAIYFCAVKDNARLMFGDGTQLVVKPGGGGSGGGGSGGGGSGGGGSGGGGSGAVISQKPSRDIVQRGNSVTIQCQVDRPVTMMFWYRQQPGQSLTLIATANQGSEATYESGFVIDKFPISRPNLTFSTLTVSNMSPEDSSIYLCSVLGAYGYTFGSGTRLTVV

From US20250034227A1
